This note sets out measurements from patent publication US20170327854A1, “METHODS FOR CELLOBIOSAN UTILIZATION” (Alliance for Sustainable Energy, LLC, priority 2015, published 2017).

The subject of one assay is P. putida strain FJPO3. In words: Growth and mcl-PHA production of strain FJPO3 on levoglucosan. It counts as cell-based, Pseudomonas putida. An excerpt: The levoglucosan kinase (lgk) gene from Lipomyces starkeyi was codon optimized using Gene Designer software from DNA 2.0 and synthesized as a gBlock (SEQ ID NO:1). This fragment was cloned into plasmid pMFL76, which is derived from the commercial PCR-Blunt II Topo vector (ThermoFisher), with the addition of two 1-kb genomic regions located in proximity of the rpoS region of the genome from Pseudomonas putida KT2440 to enable homologous recombination mediated genomic integration into strain KT2440. The Ptac-lgk was inserted in between these 1 kb homology regions and transformed into KT2440. A single kanamycin-resistant transformant was isolated and growth in M9 levoglucosan was confirmed, to generate strain FJPO3.
P. putida produces medium chain-length polyhydroxy-alkanoates (mcl-PHAs), which are high-value polymers that can serve as plastics, adhesive precursors, and as precursors to chemical building blocks or hydrocarbons. As mcl-PHAs represent a potential target to generate from pyrolytic sugars, the generation of mcl-PHAs by P. putida using levoglucosan as its sole carbon source as investigated.
Most growths were in a modified formulation of M9 minimal salts. Briefly, 6.78 g Na2PO4 (anhydrous), 3 g KH2PO4, and 0.5 g NaCl were dissolved in 750 mL deionized H2O. The pH was adjusted to 7.4 with 10 N NaOH and brought to 900 mL with H2O. The solution was autoclaved for 15 minutes at 121° C. and allowed to cool. […]
Growth curves were generated using a Bioscreen C automated microbiology growth curve analysis system from Growth Curves USA. […] Spectrophotometric blanks were subtracted from the measured values and each growth curve represents the average of three independent cultures. The maximum specific growth rate (μmax) was calculated as the maximum slope of the log phase of the growth curve over any given 4 hour period during the course of the experiment. […]
One mL of saturated cultures was centrifuged at 5,000×g for 5 minutes. […] Nile Red fluorescence was detected between 560 and 590 nm using band-pass filtering.

A short description of assay [1]: β-Glucosidase mediated cleavage of cellobiosan (HPLC). Particulars: cellobiosan 2 mg/mL, 2.5 to 20 μg of enzyme (four enzyme loadings), 40° C., 90 minutes, FIG. 5. The assay is classed as biochemical. As to the method:
(§1) Following the β-glucosidase reaction period, the tubes were placed on ice, filtered through a 0.2 μm filter and analyzed via High-Performance Liquid Chromatography (HPLC; Agilent 1100 series system (Agilent USA, Santa Clara, Calif.)) using a Shodex SP0810 carbohydrate column with de-ashing guard cartridges (BioRad Laboratories, Hercules, Calif.) run at 85° C. with ultra-pure water as the isocratic mobile phase at a flow rate of 0.6 mL/min. A refractive index detector was used for compound detection. By-products were identified by co-elution at the same retention time with pure compounds. Standard curves for substrate (cellobiosan) and products (glucose and levoglucosan) were also generated in order to quantify results. Additionally, enzymes were analyzed via HPLC in buffer alone (without cellobiosan) to ensure no carry-over products inherent to the enzyme preparations.
Each reaction was set up in 1.5 mL microcentrifuge tubes using cellobiosan at a concentration of 2 mg/mL in the following buffers: 50 mM sodium maleate, pH 6.5 (T. maritima and Agrobacterium sp.), and 100 mM sodium acetate, pH 5.0 (P. chrysosporium and A. niger). For each reaction, 2.5 to 20 μg of enzyme was loaded and the total reaction volume was 400 μL. An additional enzyme-free reaction was run simultaneously to ensure cellobiosan cleavage was enzyme-dependent. Reactions were incubated at 40° C. using a dry-block for 90 minutes. In a separate reaction evaluating the substrate concentration, 0.125 μM of purified A. niger β-glucosidase was incubated at 40° C. in a 96-well microtiter plate with 0, 0.5, 1, 2, 4, 8, 16 or 32 mM cellobiose or cellobiosan. Reactions were initiated by the addition of enzyme and quenched by boiling in a thin walled PCR tube at 0.5, 1, 5 and 10 minutes.
as §1, with “the” for “the β-glucosidase”, “periods,” for “period,”, “Agilent1100” for “Agilent 1100”, “ml min^−1.” for “mL/min.”, “(without the addition of” for “(without”

The subject of assay [2] is P. putida strains FJPO3 and KT2440. As to the kind of experiment: Growth of P. putida strains on cellobiose or cellobiosan with addition of abg β-glucosidase. It counts as cell-based, Pseudomonas putida. As to the method:
Most growths were in a modified formulation of M9 minimal salts. Briefly, 6.78 g Na2PO4 (anhydrous), 3 g KH2PO4, and 0.5 g NaCl were dissolved in 750 mL deionized H2O. The pH was adjusted to 7.4 with 10 N NaOH and brought to 900 mL with H2O. The solution was autoclaved for 15 minutes at 121° C. and allowed to cool. One hundred μL of 1 M CaCl2 (100 μM final) and 2 mL of 1 M MgSO4-7H2O (2 mM Final), 1 mL of 100 mM FeSO4, (100 μM final) and 10 mL 1 M (NH4)2SO4 (10 mM final) was added. In the case of FIG. 2, 1 mM (NH4)2SO4, was used to induce mcl-PHA production.
Growth curves were generated using a Bioscreen C automated microbiology growth curve analysis system from Growth Curves USA. Overnight cultures were diluted to 0.02 OD in a total volume of 300 μL per well. Incubations were performed at 30° C. with continuous shaking and turbidity measurements (OD420-580) were collected every 15 minutes for the duration of the experiments. Spectrophotometric blanks were subtracted from the measured values and each growth curve represents the average of three independent cultures. The maximum specific growth rate (μmax) was calculated as the maximum slope of the log phase of the growth curve over any given 4 hour period during the course of the experiment. […]

With `O[C@@H]1[C@@H](O)[C@@H]2OC[C@@H](O2)[C@H]1O` [levoglucosan], the “growth profile of FJPO3 compared with glucose” value in the assay on P. putida strain FJPO3 (M9 medium, 7.5 g/L levoglucosan vs 7.5 g/L glucose, FIG. 2 Panel A) is given as “similar”. Also, the “concentration at which FJPO3 has the capacity to grow” value in the assay on P. putida strain FJPO3 (M9 medium, FIG. 2 Panel B) was at most 60 g/L. Besides, in the assay with P. putida strain FJPO3 (N-limited medium [M9 1mM (NH4)2SO4], levoglucosan as sole carbon source, FIG. 2 Panel C), the “mcl-PHA production by FJPO3 (Nile Red fluorescence)” value was “produces mcl-PHAs”. For the molecule “bgl1A: P. chrysosporium β-glucosidase, GH3, GenBank AAC26489, SEQ ID NO: 4”, the “cleavage of cellobiosan to generate glucose and levoglucosan” value (“cleavage of cellobiosan” for short) in assay [1] was “able to cleave cellobiosan”.

B1: bglA: T. maritima β-glucosidase, GH1, GenBank CAA52276.1, SEQ ID NO: 5 (protein, listed as Thermotoga maritima)
chain: MNVKKFPEGFLWGVATASYQIEGSPLADGAGMSIWHTFSHTPGNVKNGDTGDVACDHYNRWKEDIEIIEKLGVKAYRFSISWPRILPEGTGRVNQKGLDFYNRIIDTLLEKGITPFVTIYHWDLPFALQLKGGWANREIADWFAEYSRVLFENFGDRVKNWITLNEPWVVAIVGHLYGVHAPGMRDIYVAFRAVHNLLRAHARAVKVFRETVKDGKIGIVFNNGYFEPASEKEEDIRAVRFMHQFNNYPLFLNPIYRGDYPELVLEFAREYLPENYKDDMSEIQEKIDFVGLNYYSGHLVKFDPDAPAKVSFVERDLPKTAMGWEIVPEGIYWILKKVKEEYNPPEVYITENGAAFDDVVSEDGRVHDQNRIDYLKAHIGQAWKAIQEGVPLKGYFVWSLLDNFEWAEGYSKRFGIVYVDYSTQKRIVKDSGYWYSNVVKNNGLED
For the molecule B1, in assay [1], the “cleavage of cellobiosan” value is on record as “able to cleave cellobiosan”.

B2: bgl1: A. niger β-glucosidase, GH3, GenBank AJ132386, SEQ ID NO: 3 (protein)
chain: MRFTLIEAVALTAVSLASADELAYSPPYYPSPWANGQGDWAQAYQRAVDIVSQMTLDEKVNLTTGTGWELELCVGQTGGVPRLGVPGMCLQDSPLGVRDSDYNSAFPAGMNVAATWDKNLAYLRGKAMGQEFSDKGADIQLGPAAGPLGRSPDGGRNWEGFSPDPALSGVLFAETIKGIQDAGVVATAKHYIAYEQEHFRQAPEAQGFGFNISESGSANLDDKTMHELYLWPFADAIRAGAGAVMCSYNQINNSYGCQNSYTLNKLLKAELGFQGFVMSDWAAHHAGVSGALAGLDMSMPGDVDYDSGTSYWGTNLTISVLNGTVPQWRVDDMAVRIMAAYYKVGRDRLWTPPNFSSWTRDEYGYKYYYVSEGPYEKVNQYVNVQRNHSELIRRIGADSTVLLKNDGALPLTGKERLVALIGEDAGSNPYGANGCSDRGCDNGTLAMGWGSGTANFPYLVTPEQAISNEVLKHKNGVFTATDNWAIDQIEALAKTASVSLVFVNADSGEGYINVDGNLGDRRNLTLWRNGDNVIKAAASNCNNTIVVIHSVGPVLVNEWYDNPNVTAILWGGLPGQESGNSLADVLYGRVNPGAKSPFTWGKTREAYQDYLVTEPNNGNGAPQEDFVEGVFIDYRGFDKRNETPIYEFGYGLSYTTFNYSNLEVQVLSAPAYEPASGETEAAPTFGEVGNASDYLYPSGLQRITKFIYPWLNGTDLEASSGDASYGQDSSDYLPEGATDGSAQPILPAGGGPGGNPRLYDELIRVSVTIKNTGKVAGDEVPQLYVSLGGPNEPKIVLRQFERITLQPSEETKWSTTLTRRDLANWNVEKQDWEITSYPKMVFVGSSSRKLPLRASLPTVH
modifications: Aspergillus niger
Turning to B2, the “cleavage of cellobiosan” value in assay [1] is “able to cleave cellobiosan”.

B3: abg: Agrobacterium sp. β-glucosidase, GH1, GenBank AAA22085.1, SEQ ID NO: 6 (protein, listed as Agrobacterium sp.)
chain: MTDPNTLAARFPGDFLFGVATASFQIEGSTKADGRKPSIWDAFCNMPGHVFGRHNGDIACDHYNRWEEDLDLIKEMGVEAYRFSLAWPRIIPDGFGPINEKGLDFYDRLVDGCKARGIKTYATLYHWDLPLTLMGDGGWASRSTAHAFQRYAKTVMARLGDRLDAVATFNEPWCAVWLSHLYGVHAPGERNMEAALAAMHHINLAHGFGVEASRHVAPKVPVGLVLNAHSAIPASDGEADLKAAERAFQFHNGAFFDPVFKGEYPAEMMEALGDRMPVVEAEDLGIISQKLDWWGLNYYTPMRVADDATPGVEFPATMPAPAVSDVKTDIGWEVYAPALHTLVETLYERYDLPECYITENGACYNMGVENGQVNDQPRLDYYAEHLGIVADLIRDGYPMRGYFAWSLMDNFEWAEGYRMRFGLVHVDYQTQVRTVKNSGKWYSALASGFPKGNHGVAKG
Turning to B3, the “cleavage of cellobiosan” value in assay [1] is listed as “able to cleave cellobiosan”. In addition, the “growth of FJPO3 and KT2440 in M9 medium containing cellobiosan plus abg” value in assay [2] (cellobiosan, twenty micrograms of enzyme, 30° C., FIG. 6) is “both FJPO3 and KT2440 are capable of utilizing the glucose component of cellobiosan”. Further, the “growth profiles of KT2440 and FJPO3 in M9 medium containing cellobiose with addition of abg” value in assay [2] (cellobiose, FIG. 6 Panel A) was “virtually indistinguishable”.
